Blank lines part the entries; values can stand above or below the binder they belong to.
Tests used:
[1] = target: T1, Human CD19-his protein (human, UniProt P15391 20-291); assay: ELISA, antibody at 1.00 nM
T1 construct: bought protein; also called human CD19 protein; recombinant human CD19-His; not shown: His tag
T1 sequence (looked up): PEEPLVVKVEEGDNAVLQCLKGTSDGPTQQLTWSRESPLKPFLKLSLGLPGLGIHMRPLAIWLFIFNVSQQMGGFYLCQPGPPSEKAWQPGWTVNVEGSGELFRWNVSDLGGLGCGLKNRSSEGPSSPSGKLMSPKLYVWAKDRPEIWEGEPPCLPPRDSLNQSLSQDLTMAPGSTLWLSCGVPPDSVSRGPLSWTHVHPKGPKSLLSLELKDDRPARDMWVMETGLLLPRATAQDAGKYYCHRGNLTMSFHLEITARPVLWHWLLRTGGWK
Method: (§1) Human CD19-his protein (purchased from ACROBiosystems, catalog number: CD9-H52H2) was diluted with PBS to a final concentration of 4 μg/mL, and then added to a 96-well ELISA plate at 100 μl/well. The plate was sealed with a plastic film and incubated overnight at 4° C., the plate was washed 2 times with PBS the next day, and then a blocking solution [PBS+2% (w/w) BSA] was added for blocking at room temperature for 2 h. The blocking solution was poured off, and 100 nM gradiently diluted CD19 chimeric antibody or control antibody was added at 50 μl/well. After incubation at 37° C. for 2 h, the plate was washed 3 times with PBS. […] TMB substrate was added at 50 μl/well, and incubated at room temperature for 10 min, and then a stop solution (1.0 N HCl) was added at 50 μl/well. The OD450 nm values were read by an ELISA microplate reader (Multimode Plate Reader, EnSight, purchased from Perkin Elmer).

[2] = target: T2, murine CD19 protein (murine, UniProt P25918 17-287, limits assumed); assay: ELISA, coated murine CD19
T2 construct: bought protein; also called commercial murine CD19
T2 sequence (looked up): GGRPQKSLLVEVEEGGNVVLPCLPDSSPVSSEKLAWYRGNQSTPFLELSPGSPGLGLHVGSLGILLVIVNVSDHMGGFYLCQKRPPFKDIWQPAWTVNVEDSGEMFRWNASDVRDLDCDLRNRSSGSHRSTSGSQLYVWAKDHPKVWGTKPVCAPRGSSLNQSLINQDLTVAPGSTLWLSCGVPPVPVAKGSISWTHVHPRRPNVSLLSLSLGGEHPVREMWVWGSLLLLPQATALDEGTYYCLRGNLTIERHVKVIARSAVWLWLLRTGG
Method: as §1
In order to detect the species cross-binding activity of the chimeric antibodies, an ELISA plate was coated with commercial murine CD19 (ACROBiosystems, catalog number: 50510-M08H) and monkey CD19 (ACROBiosystems, catalog number: 90051-C08H), respectively, and the ELISA detection was performed according to the method in example 5.1.

[3] = target: T1, Human CD19-his protein; assay: ELISA, antibody at 100 nM
Method: as §1

[4] = target: T1, Human CD19-his protein; assay: ELISA, antibody at 0.0001 nM
Method: as §1

[5] = target: T1, Human CD19-his protein; assay: ELISA, antibody at 0.01 nM
Method: as §1

[6] = target: T1, Human CD19-his protein; assay: ELISA, antibody at 10 nM
Method: as §1

[7] = target: T1, Human CD19-his protein; assay: ELISA, antibody at 0.001 nM
Method: as §1

[8] = target: T1, Human CD19-his protein; assay: ELISA, antibody at 0.10 nM
Method: as §1

[9] = target: T3, human CD19 exon1-3-his protein (human, UniProt P15391 20-186, limits assumed); assay: ELISA, coated at 2 ug/mL
T3 construct: made in HEK293E cells; also called membrane-distal end; not shown: His tag
T3 sequence (looked up): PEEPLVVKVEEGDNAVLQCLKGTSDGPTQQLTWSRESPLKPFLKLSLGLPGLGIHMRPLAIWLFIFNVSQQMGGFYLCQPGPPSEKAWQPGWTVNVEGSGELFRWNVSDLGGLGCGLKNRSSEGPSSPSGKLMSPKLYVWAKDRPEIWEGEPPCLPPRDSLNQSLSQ
Method: as §1
CD19 protein contains 4 exons in the extracellular region, in which exons 1-3 are located at the membrane-distal end and exon 4 is located at the membrane-proximal end. […] To identify the distribution of antigen binding epitopes of the chimeric antibodies, human CD19 exon 1-3-His (membrane-distal end) was used to coat at 2 μg/mL according to the ELISA method in example 5.1.

B3: F4.49.11 (antibody, human IgG1, V domains shown)
VH: DVQLRASGPGLVKPSQSLSLTCSVTGYSITSGYYWNWIRQFPGNKLEWMGCISYDGTNNYNPSLKNRISFTRDTSKNQFFLNLNSVTTEDSATYYCARRVYYRYDGVVDYWGQGTSVTVSS
VL: ENVLTQSPAIMSASPGEKVTMTCSASSSVSYIHWYQQKSSTAPKLWIYDTSKLASGVPGRFSGSRSRNSYSLTISSMEAEDVATYYCFQGSGYPLTFGSGTKLEIK
notes: human-murine chimeric antibody, human IgG1
OD450 [1]: 0.48
binding result [2]: no binding
OD450 [3]: 1.16
OD450 [4]: 0.04
binding result [9]: no binding
OD450 [5]: 0.07
OD450 [6]: 0.85
OD450 [7]: 0.05
OD450 [8]: 0.13

B4: F4.96.6 (antibody, human IgG1, V domains shown)
VH: EIQLQQSGPELVKPGASVKVSCKASGYAFSAYNIYWVKQSHGKSLEWIGYIDPYNSGTTYNQKFRGKATLTVDKSSNTAYMHLSSLTSEDSAVYYCTRDGDAMDYWGQGTSVTVSS
VL: EILLTQSPAIIAASPGEKVTITCSASSGVIYMNWYQQKPGSSPKIWIYDVSTLASGVPARFSGSGSGTSFSFTINSMEAEDVATYYCQQRSSYPYTFGGGTKLEIK
notes: as for B3
OD450 [1]: 0.91
binding result [2]: no binding
OD450 [3]: 1.64
OD450 [4]: 0.05
binding result [9]: no binding
OD450 [5]: 0.11
OD450 [6]: 1.16
OD450 [7]: 0.06
OD450 [8]: 0.29

B5: F3.23.10 (antibody, human IgG1, V domains shown)
VH: EFQLQQSGPELVKPGASVKISCKASDYSFTDYNMNWVKQSNGASLEWIGIINPNFGSTSYNQKFKGKATLTVDQSSSTAFMQLNSLTSEDSAVYYCARSEYYGSSGFAYWGQGTLVTVSA
VL: DVVVTQTPLSLPVSFGDQVSISCRSSQSLVNSYGNTYLSWYLHKPGQSPQLLIYGISNRFSGVPDRFSGSGSGTDFTLKITTIKPEDLGMYYCLQGTHQPWTFGGGTKLEIK
notes: as for B3
OD450 [1]: 1.27
binding result [2]: no binding
OD450 [3]: 2.14
OD450 [4]: 0.05
OD450 [5]: 0.09
OD450 [6]: 1.85
OD450 [7]: 0.06
OD450 [8]: 0.39

B7: F4.58.6 (antibody, human IgG1, V domains shown)
VH: QVQLQQPGAELVKPGASVKLSCKASGYTFTSYWMHWVKQRPGQGLEWIGEIDPSDSYSNYNQKFKGKATLTVDKSSSTAYMQLSSLTSEDSAVYYCARSNYGSSYGYFDVWGAGTTVTVSS
VL: QIVLTQSPAIMSASPGEKVTMTCSVSSSLSYMHWYQQKPGTSPKRWIYDTSKLASGVPARFSGSGSGTSYSLTISSMEAEDAATYYCHQRSSYPTFGGGTKLEIK
notes: as for B3
OD450 [1]: 0.67
binding result [2]: no binding
OD450 [3]: 0.94
OD450 [4]: 0.05
binding result [9]: no binding
OD450 [5]: 0.09
OD450 [6]: 0.8
OD450 [7]: 0.05
OD450 [8]: 0.3

B8: F4.35.5 (antibody, human IgG1, V domains shown)
VH: EIQLQQSGPELVKPGASVKVSCKASGYAFTSYNMYWVKQSHGKSLEWIGYIDPYNGDTRYNQKFKGKATLTVDKSSSTAYMHLNSLTSEDSAVYYCTRSGTGRDYWGQGTTLTVSS
VL: QIVLTQSPAIMSASPGEKVTMTCSASSSISYMFWFQQKPGSSPRLLIYDTSSLASGVPVRFSGSGSGTSYTLTISRMEAEDAATYYCQQWSNYPYTFGGGTKLEMK
notes: as for B3
OD450 [1]: 0.5
binding result [2]: no binding
OD450 [3]: 0.87
OD450 [4]: 0.05
binding result [9]: no binding
OD450 [5]: 0.07
OD450 [6]: 0.65
OD450 [7]: 0.05
OD450 [8]: 0.25

B9: F4.37.6 (antibody, human IgG1, V domains shown)
VH: QVQLQQSGAELARPGASVKLSCKASGYTFTSFWMQWLKQRPGQGLEWIGTIYPGDGDTRYTQKFKGKATLTADKSSNTAYMQLSSLASEDSAVYYCARGALSNYGGFAYWGQGTLVTVSA
VL: NIVLTQSPASLAVSLGQRATISCRASESVDSYGHSFMHWYQQKPGQPPKLLIYLASNLESGVPARFSGSGSRTDFTLTIDPVEADDAATYYCQQNNEDPWTFGGGTKLEIK
notes: as for B3
OD450 [1]: 0.8
binding result [2]: no binding
OD450 [3]: 1.08
OD450 [4]: 0.07
binding result [9]: no binding
OD450 [5]: 0.2
OD450 [6]: 1
OD450 [7]: 0.09
OD450 [8]: 0.6

Results, then the binder that gave them:

OD450 [1]: 1.82
binding result [2]: no binding
OD450 [3]: 3.01
OD450 [4]: 0.06
OD450 [5]: 0.14
OD450 [6]: 2.68
OD450 [7]: 0.07
OD450 [8]: 0.56
B1: F5.11.2 (antibody, human IgG1, V domains shown)
VH: EVQLVESGGDLVKPGGSLKLSCAASGFTFSSYGMSWVRQTPDKRLEWVATISHGGSYTHYPDSVKGRFTISRDNAKNTLYLQMNSLKSEDTAMYYCVRLPITTVEAPYFFDYWGQGTTLTVSS
VL: DIQMTQTTSSLSASLGDRVTISCRASQDIRNYLNWYQQKPDGTVKLLIYYTSILHSGVPSRFSGSGSGTDYSLTINNLEQEDVATYFCQQGNTLYTFGGGTEVELR
notes: as for B3

OD450 [1]: 1.07
binding result [2]: no binding
OD450 [3]: 1.43
OD450 [4]: 0.05
binding result [9]: no binding
OD450 [5]: 0.13
OD450 [6]: 1.2
OD450 [7]: 0.06
OD450 [8]: 0.4
B2: F4.276.12 (antibody, human IgG1, V domains shown)
VH: EIQLQQSGPELVKPGASVKVSCKASGYAFSAYNMYWVKQSHGKSLEWIGYIDPYNGGTNYNQKFKGKATLTVDKSSSTAYMHLNSLTSEDSAVYYCARDGYEVTYWGQGTLVTVSA
VL: QIVLTQSPALMSASLGEEITLTCSASSSVTYMHWSQQKSGTSPRLLIYSTSNLASGVPSRFSGSGSGTFYSLTISSVEAEDAADYYCHQWSSYPWTFGGGTKLEIK
notes: as for B3

OD450 [1]: 0.13
binding result [2]: no binding
OD450 [3]: 0.33
OD450 [4]: 0.06
binding result [9]: no binding
OD450 [5]: 0.06
OD450 [6]: 0.26
OD450 [7]: 0.06
OD450 [8]: 0.08
B6: F6.2.9 (antibody, human IgG1, V domains shown)
VH: QVQLQQSGAELVKPGASVKISCKASGYAFSSYWMNWVKQRPGKGLEWIGQIYPGDGDTNYNGKFKGKATLTADKSSSTGYMQLSSLTSEDSAVYFCARSRITSVVDWYFDVWGTGTTVTVSS
VL: QIVLSQSPAILSASPGEKVTMTCRASSSVSYMHWYQQKPGSSPKPWIYATSNLASGVPARFSGSGSGTSYSLTISRVEAEDAATYYCQQWSSNPPTFGAGTKLELK
notes: as for B3

OD450 [1]: 0.45
binding result [2]: no binding
OD450 [3]: 0.63
OD450 [4]: 0.05
binding result [9]: no binding
OD450 [5]: 0.1
OD450 [6]: 0.43
OD450 [7]: 0.06
OD450 [8]: 0.34
B10: F6.5.20 (antibody, human IgG1, V domains shown)
VH: QVQLQQPGAELVKPGASVKLSCKASGYTFTSYWMQWVKQRPGQGLEWIGEIDPSDSYTNYNQKFKGKASLTVDTSSSTAYMQLSSLTSEDSAVYYCARWGLLRNYYVMDYWGQGTSVTVSS
VL: EIVLTQSPTTMAASPGEKITITCSASSSISSNYLHWYQQKPGFSPKLLIYRTSNLASGVPARFSGSGSGTSYSLTIGTMEAEDVATYYCQQGSSIPRMLTFGAGTKLELK
notes: as for B3

From patent US20250042994A1 (HAINAN SIMCERE ZAIMING PHARMACEUTICAL, published 2025)
